Laboratory results published in patent US6689362.

Experiments:
[1] = molecular target: CD7 antigen (human) (UniProt P09564); experiment: indirect immunofluorescence, flow cytometry on Jurkat cells
[2] = molecular target: CD7 antigen (human) (UniProt P09564); experiment: indirect immunofluorescence, flow cytometry on MOLT-3 cells
[3] = molecular target: CD7 antigen (human) (UniProt P09564); experiment: cell-based or functional assay
[4] = molecular target: CD7 antigen (human) (UniProt P09564); experiment: indirect immunofluorescence with FITC goat anti-mouse IgG on MOLT-3 cells, 10 µg/mL (50 nM) TXU-PAP

TXU-7-PAP immunotoxin, sequence (P10297 23-285): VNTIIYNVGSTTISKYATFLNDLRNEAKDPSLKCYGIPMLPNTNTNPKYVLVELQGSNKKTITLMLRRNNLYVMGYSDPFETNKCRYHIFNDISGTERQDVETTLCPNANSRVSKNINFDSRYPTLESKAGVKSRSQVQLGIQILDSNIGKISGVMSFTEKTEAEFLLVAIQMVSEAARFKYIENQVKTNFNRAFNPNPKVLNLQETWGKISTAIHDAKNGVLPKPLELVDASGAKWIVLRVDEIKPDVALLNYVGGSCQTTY

Substance	percent of cells stained [1] [%]	percent of cells stained [2] [%]	log kill of clonogenic MOLT-3 blasts, serial dilution clonogenic assay, at 1 µg/mL (=5 nM) [3] [logs]	percent of cells positive for cell-surface bound immunotoxin [4] [%]
monoclonal antibody TXU-7	96	99	–	–
TXU-7-PAP immunotoxin (from UniProt P10297 23-285)	–	–	2.8 to 3.7	98
